Broadly, the Kd is the equilibrium constant for the complex coming apart.

The target of one test is HLA-B*15:01. The experiment in a line: IEDB peptide-MHC binding, purified MHC/direct/fluorescence; filed as Kd, often an IC50 or EC50 that approximates it; ≥ and ≤ were set here for values at or beyond the usual limits of such assays.
The next test addresses HLA-B*51:01. Kind of test: IEDB peptide-MHC binding, purified MHC/competitive/radioactivity; filed as Kd, often an IC50 or EC50 that approximates it; ≥ and ≤ were set here for values at or beyond the usual limits of such assays.
The next test has as its target HLA-B*40:01. Kind of test: IEDB peptide-MHC binding, purified MHC/direct/fluorescence; filed as Kd, often an IC50 or EC50 that approximates it; ≥ and ≤ were set here for values at or beyond the usual limits of such assays.
For a further test, the target named is HLA-A*30:02. The experiment in a line: IEDB peptide-MHC binding, purified MHC/competitive/radioactivity; filed as Kd, often an IC50 or EC50 that approximates it; ≥ and ≤ were set here for values at or beyond the usual limits of such assays.
A further test addresses HLA-A*69:01. Kind of test: IEDB peptide-MHC binding, purified MHC/direct/fluorescence; filed as Kd, often an IC50 or EC50 that approximates it; ≥ and ≤ were set here for values at or beyond the usual limits of such assays.
Test [1] concerns the target HLA-A*02:01. The description is as above.
The next test has as its target HLA-B*58:01. The test is described as above.
The target of the next test is HLA-B*07:02. The test is described as above.
The target in another test is HLA-A*24:02. The experiment in a line: IEDB peptide-MHC binding, purified MHC/competitive/radioactivity; filed as Kd, often an IC50 or EC50 that approximates it; ≥ and ≤ were set here for values at or beyond the usual limits of such assays.
In the next test the target is HLA-A*11:01. Kind of test: IEDB peptide-MHC binding, purified MHC/direct/fluorescence; filed as Kd, often an IC50 or EC50 that approximates it; ≥ and ≤ were set here for values at or beyond the usual limits of such assays.
The target of test [2] is HLA-A*02:01. The experiment in a line: IEDB peptide-MHC binding, purified MHC/competitive/fluorescence; filed as Kd, often an IC50 or EC50 that approximates it; ≥ and ≤ were set here for values at or beyond the usual limits of such assays.
The target of another test is HLA-A*03:01. The experiment in a line: IEDB peptide-MHC binding, purified MHC/direct/fluorescence; filed as Kd, often an IC50 or EC50 that approximates it; ≥ and ≤ were set here for values at or beyond the usual limits of such assays.
The target of a further test is HLA-B*53:01. The experiment in a line: IEDB peptide-MHC binding, purified MHC/competitive/radioactivity; filed as Kd, often an IC50 or EC50 that approximates it; ≥ and ≤ were set here for values at or beyond the usual limits of such assays.
The target in the next test is HLA-A*02:06. The test is described as above. Particulars: source organism: Dengue virus 1 Brazil/97-11/1997.
A further test addresses HLA-A*01:01. The experiment in a line: IEDB peptide-MHC binding, purified MHC/direct/fluorescence; filed as Kd, often an IC50 or EC50 that approximates it; ≥ and ≤ were set here for values at or beyond the usual limits of such assays.
Where [3] appears, read: source organism: Dengue virus 2 Jamaica/1409/1983.
[4] abbreviates: source organism: Dengue virus 3 Martinique/1243/1999.
[5] abbreviates: source organism: Orthomarburgvirus marburgense.
[6] abbreviates: source organism: Pseudomonas aeruginosa.
Where [7] appears, read: source organism: Dengue virus 1 Brazil/97-11/1997.
The mark [8] stands for this setting: source organism: Francisella tularensis subsp. holarctica LVS.
[9] abbreviates: source organism: Vaccinia virus WR.
[10] abbreviates: source organism: Dengue virus 4 Philippines/H241/1956.
The mark [11] stands for this setting: source organism: Campylobacter jejuni RM1221.
The mark [12] stands for this setting: source organism: Human immunodeficiency virus 1.
The mark [13] stands for this setting: source organism: Vibrio vulnificus.
Setting [14] is: source organism: Cryptosporidium hominis.
The mark [15] stands for this setting: source organism: Dengue virus 3 Singapore/8120/1995.
Setting [16] is: source organism: Cryptosporidium parvum.

Sequence SVKEDLVAY had a Kd in the test with HLA-B*15:01 (source organism: Yellow fever virus 17D) of 95.5 nM.

As for FKLTYQNKVV, the Kd with HLA-B*51:01 (setting [3]) was ≥ 60000 nM.

EEFCDMLRL yielded a Kd with HLA-B*40:01 (source organism: Mammarenavirus lassaense) of 255 nM.

For GCGRGGWSYY, the Kd in the test with HLA-A*30:02 (setting [4]) stood at 9.43 nM.

Regarding GLYPQLSAI, the figures for the Kd in the test with HLA-A*69:01 (setting [5]) and with HLA-A*02:01 [1] (setting [5]) were 3860 nM and 123 nM, respectively.

Turning to LAYVVIGIL, the dissociation constant (Kd) with HLA-B*51:01 (setting [4]) turned out to be 1320 nM.

For the sequence ILGRYLPEF, the Kd with HLA-A*69:01 (setting [6]) stood at 18100 nM; with HLA-B*15:01 (setting [6]) it was 150 nM; with HLA-B*58:01 (setting [6]), 146 nM; with HLA-A*02:01 [1] (setting [6]), 4130 nM.

With VHQVFGTAY, the Kd with HLA-A*30:02 (setting [7]) was determined as 599 nM.

In the test with HLA-B*07:02 (source organism: Danio rerio), AARHKHQVM returned a Kd of 64.8 nM.

As for GYHTQTAGPW, in the test with HLA-A*24:02 (setting [3]), the Kd amounted to 3250 nM.

As for VPGLPGTVL, the Kd in the test with HLA-B*07:02 (source organism: SARS-CoV1) amounted to 91.5 nM; with HLA-A*11:01 (source organism: SARS-CoV1), 4550 nM.

KLTFLDVEV registered a Kd with HLA-A*02:01 [2] (source organism: Variola virus) of 10.1 nM.

Take CNLTSTWVTY: the Kd in the test with HLA-A*30:02 (setting [4]) is ≥ 68900 nM.

Turning to HLALTCILK, the Kd in the test with HLA-A*03:01 (source organism: Salmonella enterica subsp. enterica serovar Typhi) was 123 nM.

As to PPTAGILKRW, the Kd with HLA-B*53:01 (setting [3]) amounted to 3270 nM.

As for WAYHGSYEV, the Kd with HLA-A*02:06 was found to be 24.5 nM; with HLA-B*51:01 (setting [7]), 11.1 nM.

With RRRPVTRPL, the Kd with HLA-B*07:02 (source organism: Candidatus Solibacter) stood at 3.4 nM.

LEKTHNGKL registered a dissociation constant (Kd) with HLA-B*40:01 (source organism: Influenza A virus (A/RI/5-/1957(H2N2))) of 124 nM.

Regarding YPAEITLTW, the Kd with HLA-B*07:02 (source organism: Homo sapiens) came out at 147 nM; with HLA-B*58:01 (source organism: Homo sapiens) it was 55 nM.

For the sequence IWLKLREVY, the Kd in the test with HLA-A*30:02 (setting [4]) was ≥ 76900 nM.

For LPEEQDQNYV, the Kd in the test with HLA-B*51:01 (setting [4]) came to 11900 nM.

Turning to PPFGESNIV, the Kd with HLA-B*51:01 (setting [4]) worked out at 1790 nM.

Take KLYSYGIGY: the results for the Kd with HLA-A*03:01 (setting [8]) and with HLA-A*11:01 (setting [8]) were 1.4 nM and 75.4 nM, respectively.

In the test with HLA-A*02:01 [2] (setting [9]), YLIHDNIMYT showed a Kd of 1.4 nM.

For VYRIKQQGI, the Kd in the test with HLA-A*24:02 (setting [4]) came out at 464 nM.

In the case of ILLSCIHTT, the Kd in the test with HLA-A*02:01 [2] (source organism: Vaccinia virus Copenhagen) was determined as 1.2 nM.

In the case of YAQIQPHWI, the Kd in the test with HLA-B*51:01 (setting [3]) worked out at 1080 nM.

Consider LAGFMAYMI, for which the values for the Kd with HLA-B*51:01 (setting [10]) and in the test with HLA-B*53:01 (setting [10]) were 7090 nM and 2120 nM, respectively.

In the case of FGCKPLTMFL, in the test with HLA-B*51:01 (setting [7]), the Kd is ≥ 35100 nM.

In the case of GIYHDICEI, the Kd in the test with HLA-A*69:01 (setting [11]) was ≥ 20000 nM; in the test with HLA-A*02:01 [1] (setting [11]), 162 nM.

ATPQDLNTM: the Kd in the test with HLA-B*07:02 (setting [12]) was 11200 nM; in the test with HLA-A*02:01 [1] (setting [12]) it was ≥ 28800 nM.

In the case of HLAGFIHAC, the values for the Kd with HLA-B*15:01 (setting [13]) and in the test with HLA-A*02:01 [1] (setting [13]) were 2280 nM and 21.5 nM, respectively.

Consider SGFGGETPV, for which the dissociation constant (Kd) in the test with HLA-A*69:01 (setting [14]) was 13500 nM; with HLA-A*02:01 [1] (setting [14]) it was 863 nM.

EEFFCVHGM: the Kd with HLA-B*40:01 (source organism: Mycobacterium tuberculosis) amounted to 167 nM.

Regarding LWPKTHTLW, the Kd with HLA-A*24:02 (setting [10]) amounted to 44.9 nM.

VLSLIGLKR: the Kd with HLA-A*11:01 (source organism: West Nile virus) was ≥ 20000 nM.

In the test with HLA-A*02:01 [2] (source organism: Influenza A virus (A/Hokkaido/20/89(H3N2))), IMLKANFSV returned a Kd of 0.3 nM.

In the case of VAWRTATLI, in the test with HLA-B*51:01 (setting [4]), the dissociation constant Kd came out at 137 nM.

Consider LTSSSKYTY, for which, in the test with HLA-A*01:01 (source organism: Amur virus), the Kd was 33 nM.

Regarding PPTAGILARW, the Kd with HLA-B*53:01 (setting [7]) worked out at 10300 nM.

On to FSLGILCVSI, for which the Kd with HLA-A*02:06 was 3.63 nM; with HLA-B*51:01 (setting [7]), ≥ 39500 nM.

With DSDGSFFLY, the Kd with HLA-A*69:01 (source organism: Homo sapiens) is ≥ 25100 nM; with HLA-A*01:01 (source organism: Homo sapiens), 25 nM; with HLA-A*11:01 (source organism: Homo sapiens) it was ≥ 20600 nM.

In the case of TKLEGKIVQY, the Kd in the test with HLA-A*30:02 (setting [7]) was found to be 7040 nM.

In the case of VMGITAEWLW, the dissociation constant Kd with HLA-B*53:01 (setting [4]) came out at 39.9 nM.

For the sequence VPLAGPMVA, the Kd in the test with HLA-B*51:01 (setting [10]) stood at 17000 nM.

For the sequence CAIILGGLTW, the Kd with HLA-B*53:01 (setting [10]) is 549 nM.

LLFLKDVEP had a Kd with HLA-A*02:01 [2] (setting [9]) of 13.4 nM.

On to QNKEGDQYIY, for which, in the test with HLA-A*30:02 (source organism: Dengue virus 1 Nauru/West Pac/1974), the Kd was found to be 1350 nM.

In the test with HLA-A*02:01 [2] (source organism: Vaccinia virus), KISNTTFEV came in with a Kd of 1.9 nM.

Sequence KGGEAQFLV displayed a Kd in the test with HLA-B*58:01 (setting [6]) of 738 nM.

RNQNKEGDQY: the Kd with HLA-A*30:02 (setting [7]) was determined as 120 nM.

For RFLGEDGCWY, in the test with HLA-A*30:02 (setting [10]), the Kd came to 26.3 nM.

As for MPGTRKVMEI, the Kd was 1100 nM with HLA-B*51:01 (setting [15]) and 76.4 nM in the test with HLA-B*53:01 (setting [15]).

As for KVASEGFQY, the Kd with HLA-A*30:02 (setting [7]) came out at 28.9 nM.

Take STKNILVTV: the Kd is 60.7 nM in the test with HLA-A*69:01 (setting [16]) and 416 nM in the test with HLA-A*02:01 [1] (setting [16]).

For the origin of these results see the Immune Epitope Database (IEDB).
